“And” between values parts separate entries of the source, which are not always exact repeats. Equal entries are not always repeated. Where two headings read alike, the source gives them in different places.
Legend:
Assay in all cases: SEC-SAXS
[1] = biological target: L-lactate dehydrogenase from hog muscle (Sus scrofa) (UniProt P00339)
[2] = biological target: L-lactate dehydrogenase from hog muscle (Sus scrofa) (UniProt P00339); remark: listed apart in the source
[3] = tested on: P00924; details: other: SEC-SAXS
[4] = biological target: enolase from baker's yeast (baker's yeast) (UniProt P00924)
[5] = biological target: enolase from baker's yeast (baker's yeast) (UniProt P00924); remark: listed apart in the source

Chain of enolase from baker's yeast (P00924 whole entry): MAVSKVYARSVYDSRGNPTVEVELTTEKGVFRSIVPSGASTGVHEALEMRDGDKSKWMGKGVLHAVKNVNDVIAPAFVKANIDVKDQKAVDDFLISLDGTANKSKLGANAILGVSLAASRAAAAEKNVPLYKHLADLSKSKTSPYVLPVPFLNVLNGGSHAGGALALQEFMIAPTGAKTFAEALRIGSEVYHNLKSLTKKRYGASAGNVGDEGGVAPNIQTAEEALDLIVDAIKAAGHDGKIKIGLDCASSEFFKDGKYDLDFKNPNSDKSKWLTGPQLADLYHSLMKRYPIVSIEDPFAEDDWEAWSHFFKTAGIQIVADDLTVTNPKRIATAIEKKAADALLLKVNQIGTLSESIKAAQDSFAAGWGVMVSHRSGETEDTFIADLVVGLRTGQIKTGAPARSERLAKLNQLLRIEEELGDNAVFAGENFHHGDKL

## L-lactate dehydrogenase from hog muscle (from UniProt P00339 1-332) (enzyme)
[1]
  stoichiometry N: 4 and 2
[2]
  stoichiometry N: 4

## enolase from baker's yeast
[3]
  share of monomer and dimer in the main peak body at 100 MPa: ∼50% monomer/dimer mixture

## enolase from baker's yeast (from UniProt P00924 1-437) (enzyme)
[4]
  stoichiometry N: 2
[5]
  stoichiometry N: 2
